The values below come from patent publication US20260209359A1 (NEXTERA, published 2026).

Assay [1] addresses T1, HLA-A*02:01/MAGE-A4^230-239, soluble recombinant biotinylated pHLA (human, UniProt P04439 25-299 at identity 0.94); P61769 21-119, biotinylated).
T1 construct: Empty biotinylated HLA-A2 monomers (Tetramer Shop) loaded with synthetic peptide; also called MAGE-A4 pMHC; MAGE-A4-pHLA
Kind of assay: ELISA, biotinylated pHLA on neutravidin, protL-HRP. On the technique in general: In an ELISA, binding on a coated surface is turned into a signal by an enzyme label.
Experimental: Dotted lines indicate the EC₅₀ value (concentration at which half of maximal binding signal is achieved).
Assay 1 described above was performed. ELISA plates were coated with 5 μg/mL NeutrAvidin in PBS and incubated 16 h/4° C. (step (a)) and blocked with 5% skim milk powder in PBST for 1 h/room temperature (RT) (step (c)). […] Bound phage particles were detected with an anti-Fd antibody (anti-M13-HRP (Amersham Biosciences)), whereas bound IgG1 and scDb was detected with HRP conjugated protein L (Genscript) (step (i)). […] Plates were developed with TMB solution and read at 450 nm using a microplate reader (step (k)). Between each layer, the plates were washed 3× with PBST (steps (b), (d), (f), (h), and (j)).

The target in assay [2] is T1, HLA-A*02:01/MAGE-A4^230-239, soluble …. Nature of the assay: SPR, biotinylated pHLA on neutravidin chip, Fab injected (Assay 6-1); Fab, not scDb.
Assay [3] deals with T2, HLA-A*02:01/MAGE-A4^230-239 displayed on cells (MAGE-A4^230-239 pulsed T2 cells; NCI-H1703, A375, THP1, … (human, UniProt P04439 25-365 at identity 0.94); P61769 21-119). Kind of assay: cell-based or functional assay.
In assay [4] the target is T1, HLA-A*02:01/MAGE-A4^230-239, soluble …. Kind of assay: SPR, biotinylated pHLA on neutravidin chip, scDb without His-tag injected (Assay 6-2). For orientation: In SPR one partner is held on a chip, and binding of the other changes the refractive index at the surface.
The target is the same in assay [5]. Nature of the assay: ELISA, soluble biotinylated pHLA on neutravidin, scDb, protL-HRP.
Experimental: ELISA plates were coated with 5 μg/mL NeutrAvidin in PBS and incubated 16 h/4° C. (step (a)) and blocked with 5% skim milk powder in PBST for 1 h/room temperature (RT) (step (c)). […] Bound phage particles were detected with an anti-Fd antibody (anti-M13-HRP (Amersham Biosciences)), whereas bound IgG1 and scDb was detected with HRP conjugated protein L (Genscript) (step (i)). […] Plates were developed with TMB solution and read at 450 nm using a microplate reader (step (k)). Between each layer, the plates were washed 3× with PBST (steps (b), (d), (f), (h), and (j)).
Assay [6] concerns the target T2, HLA-A*02:01/MAGE-A4^230-239 displayed …. Nature of the assay: cell-based or functional assay. The source holds these as a separate data set.
Assay [7] has as its target T3, HLA-A*02:01 loaded with MAGE-B10 homologue peptide, soluble biotinylated (human, UniProt P04439 25-299 at identity 0.94); P61769 21-119, biotinylated).
T3 construct: HLA monomer as for m1
Kind of assay: pHLA capture ELISA: biotinylated pHLA on neutravidin, scFv-phage, anti-M13 antibody detection [cont.) C].

Assay [8] addresses T4, HLA-A*02:01 loaded with MAGE-A1 homologue peptide, soluble biotinylated (human, UniProt P04439 25-299 at identity 0.94); P61769 21-119, biotinylated).
T4 construct: HLA monomer as for m1
The assay is described as above.

Assay [9] deals with T5, HLA-A*02:01 loaded with MAGE-A12 homologue peptide, soluble biotinylated (human, UniProt P04439 25-299 at identity 0.94); P61769 21-119, biotinylated).
T5 construct: HLA monomer as for m1
The description is as above.

Assay [10] deals with T6, HLA-A*02:01 loaded with MAGE-C2 homologue peptide, soluble biotinylated (human, UniProt P04439 25-299 at identity 0.94); P61769 21-119, biotinylated).
T6 construct: HLA monomer as for m1
Described as above.

Assay [11] concerns the target T7, HLA-A*02:01 loaded with MAGE-B4 homologue peptide, soluble biotinylated (human, UniProt P04439 25-299 at identity 0.94); P61769 21-119, biotinylated).
T7 construct: HLA monomer as for m1
Described as above.

The target of assay [12] is T8, HLA-A*02:01 loaded with MAGE-A2 homologue peptide, soluble biotinylated (human, UniProt P04439 25-299 at identity 0.94); P61769 21-119, biotinylated).
T8 construct: HLA monomer as for m1
The assay is described as above.

Assay [13] deals with T9, HLA-A*02:01 loaded with MAGE-A9 homologue peptide, soluble biotinylated (human, UniProt P04439 25-299 at identity 0.94); P61769 21-119, biotinylated).
T9 construct: HLA monomer as for m1
Described as above.

Assay [14] concerns the target T10, HLA-A*02:01 loaded with MAGE-B6 homologue peptide, soluble biotinylated (human, UniProt P04439 25-299 at identity 0.94); P61769 21-119, biotinylated).
T10 construct: HLA monomer as for m1
The description is as above.

Assay [15] concerns the target T11, HLA-A*02:01 loaded with MAGE-A11 homologue peptide, soluble biotinylated (human, UniProt P04439 25-299 at identity 0.94); P61769 21-119, biotinylated).
T11 construct: HLA monomer as for m1
Described as above.

Assay [16] has as its target T12, HLA-A*02:01 loaded with MAGE-A10 homologue peptide, soluble biotinylated (human, UniProt P04439 25-299 at identity 0.94); P61769 21-119, biotinylated).
T12 construct: HLA monomer as for m1
The assay is described as above.

Assay [17] concerns the target T13, HLA-A*02:01 loaded with MAGE-B2 homologue peptide, soluble biotinylated (human, UniProt P04439 25-299 at identity 0.94); P61769 21-119, biotinylated).
T13 construct: HLA monomer as for m1
The description is as above.

The target of assay [18] is T14, HLA-A*02:01 loaded with MAGE-A3 homologue peptide, soluble biotinylated (human, UniProt P04439 25-299 at identity 0.94); P61769 21-119, biotinylated).
T14 construct: HLA monomer as for m1
The description is as above.

The target in assay [19] is T15, HLA-A*02:01 loaded with MAGE-A8 homologue peptide, soluble biotinylated (human, UniProt P04439 25-299 at identity 0.94); P61769 21-119, biotinylated).
T15 construct: HLA monomer as for m1
Kind of assay: pHLA phage capture ELISA.

A value given as a limit tells only on which side of the number the result lay.

B1: 1-H02 full length human IgG1 (antibody, V domains shown)
VH: QVQLVQSGAEVKKPGASVKVSCKVSGYTLTELSMHWVRQAPGKGLEWMGGFDPEDGETIYAQKFQGRVTMTEDTSTDTAYMELSSLRSEDTAVYYCATDQGSSWGFYWGQGTLVTVSS
VL: not shown
notes: also called 1-H02 hIgG1; 1-H02 IgG
Regarding B1, in assay [1], the EC50 stood at 1.1 nM.

B2: 1-H02 Fab (Fab, V domains shown)
VH: B1 VH
VL: not shown
notes: Fab format
With B2, the Kd in [2] is 1410 nM.

B3: AM17 scDb (bispecific antibody)
chain: DIRLTQSPSSLSASVGDRVTMTCRASQTVATYVNWYQQKPGRAPKLLMYVTSIRQSEVPSRFSGDGFGTDFTLTINPLQPDDFATYYCQQAYSTPVTFGQGTKLEIKGGGGSEVQLQQSGPELVKPGASMKISCKASGYSFTGYTMNWVKQSHGKNLEWMGLINPYKGVSTYNQKFKDKATLTVDKSSSTAYMELLSLTSEDSAVYYCARSGYYGDSDWYFDVWGAGTTVTVSSGGGGSGGGGSGGGGSDIQMTQTTSSLSASLGDRVTISCRASQDIRNYLNWYQQKPDGTVKLLIYYTSRLHSGVPSKFSGSGSGTDYSLTISNLEQEDIATYFCQQGNTLPWTFAGGTKLEIKGGGGSQVQLVQSGAEVKKPGASVKVSCKVSGYTLTELSMHWVRQAPGKGLEWMGGFDPEDGETIYAQKFQGRVTMTEDTSTDTAYMELSSLRSEDTAVYYCATDQGSSWGFYWGQGTLVTVSS
notes: as m68; without a His-tag in the SPR assay
As for B3, the “EC50 vs. NCI-H1703 (pM), T-cell specific killing” value (from here on “EC50 vs. NCI-H1703 (pM)”) in [3] turned out to be 2.9 pM. Besides, the Kd in assay [4] is 10.8 nM. Besides, the EC50 in [5] was 0.3 nM. Further, the “IFNγ EC50 vs. target positive cells (pM)” value in assay [6] is 10.9 pM.

B4: AM2 scFv displayed on phage (scFv)
scFv: QVQLVQSGAEVKKPGASVKVSCKVSGYTLTELSMHWVRQAPGKGLEWMGGFDPEDGETIYAQKFQGRVTMTEDTSTDTAYMELSSLRSEDTAVYYCATDQGSSWGFYWGQGTLVTVSSKLSGSASAPKLEEGEFSEARVDIRVTQSPSSLSASVGDRVTITCRASQNIMWYLNWYQQKPGKAPKLLIYAASSLQSGVPSRFSGSGSGTDFTLTISSLQPEDFATYYCQQSYSTPYTFGQGTKLEIK
notes: scFv on the surface of phage particles; also called AM2 phages
Consider B4, for which the binding result in assay [7], in assay [8], in assay [9], in assay [10], in assay [11] and in assay [12] was “no binding (tested: 10^9 phages/well)” each time. Also, the binding result in [13], in assay [14], in assay [15], in [16], in assay [17] and in [18] was “no binding (tested: 10^9 phages/well)” in each case. In [19], the “fold reduction of binding as compared to binding to HLA-A*02:01/MAGE-A4^230-239” value was not below 2 fold.

B5: AM11 scDb (bispecific antibody)
chain: DIRVTQSPSSLSASVGDRVTITCRADIDIRWYLNWYQQKPGKAPKLLIYAASSLQSGVPSRFSGSGSGTDFTLTISSLQPEDFATYYCQQSYSTPYTFGQGTKLEIKGGGGSEVQLQQSGPELVKPGASMKISCKASGYSFTGYTMNWVKQSHGKNLEWMGLINPYKGVSTYNQKFKDKATLTVDKSSSTAYMELLSLTSEDSAVYYCARSGYYGDSDWYFDVWGAGTTVTVSSGGGGSGGGGSGGGGSDIQMTQTTSSLSASLGDRVTISCRASQDIRNYLNWYQQKPDGTVKLLIYYTSRLHSGVPSKFSGSGSGTDYSLTISNLEQEDIATYFCQQGNTLPWTFAGGTKLEIKGGGGSQVQLVQSGAEVKKPGASVKVSCKVSGYTLTELSMHWVRQAPGKGLEWMGGFDPYLARTIYAQKFQGRVTMTEDTSTDTAYMELSSLRSEDTAVYYCATDQGSSWGFYWGQGTLVTVSS
notes: as for B3
Turning to B5, in assay [3], the “EC50 vs. NCI-H1703 (pM)” value turned out to be 3.1 pM. Besides, the dissociation constant Kd in assay [4] turned out to be 3.2 nM. In addition, the EC50 in assay [5] came to 0.17 nM. For the same molecule, the “IFNγ EC50 vs. target positive cells (pM)” value in assay [6] is 7.2 pM.

B6: AM14 scDb (bispecific antibody)
chain: DIQLTQSPSSLSASVGDRVTITCRADIDIRWYLNWYQQKPGKAPKLLIYAASGLQSGVPSRFSGSGSGTDFTLTISSLQPEDFATYYCQQSYSTPFTFGPGTKVDIKGGGGSEVQLQQSGPELVKPGASMKISCKASGYSFTGYTMNWVKQSHGKNLEWMGLINPYKGVSTYNQKFKDKATLTVDKSSSTAYMELLSLTSEDSAVYYCARSGYYGDSDWYFDVWGAGTTVTVSSGGGGSGGGGSGGGGSDIQMTQTTSSLSASLGDRVTISCRASQDIRNYLNWYQQKPDGTVKLLIYYTSRLHSGVPSKFSGSGSGTDYSLTISNLEQEDIATYFCQQGNTLPWTFAGGTKLEIKGGGGSQVQLVQSGAEVKKPGASVKVSCKVSGYTLTELSMHWVRQAPGKGLEWMGGFDPEDGETIYAQKFQGRVTMTEDTSTDTAYMELSSLRSEDTAVYYCATDQGSSWGFYWGQGTLVTVSS
notes: as for B3
In the case of B6, in assay [3], the “EC50 vs. NCI-H1703 (pM)” value stood at 5.1 pM. Besides, the Kd in assay [4] worked out at 0.44 nM. In addition, the EC50 in [5] amounted to 0.1 nM. In assay [6], the “IFNγ EC50 vs. target positive cells (pM)” value was 4.1 pM.

Usually EC50 stands for the concentration giving half of the maximal effect. As usually defined, the Kd is the equilibrium constant for the complex coming apart.
